Results on seven molecules are retold here after patent US20150344570A1 (published 2015).

One test concerns the target T1, FcγRIIb (human, UniProt P31994 43-217).
T1 construct: extracellular domain; also called FcgRIIb; 2b
T1 sequence (looked up): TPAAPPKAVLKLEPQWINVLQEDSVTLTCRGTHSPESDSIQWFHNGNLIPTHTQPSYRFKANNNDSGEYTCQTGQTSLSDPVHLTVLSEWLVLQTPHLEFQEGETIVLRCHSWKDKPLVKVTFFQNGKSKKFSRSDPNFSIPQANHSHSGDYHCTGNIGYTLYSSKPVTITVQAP
Kind of test: SPR (Biacore), relative binding. For orientation: In SPR one partner is held on a chip, and binding of the other changes the refractive index at the surface.

Test [1] addresses T2, FcγRIIIa (human, UniProt P08637 17-208).
T2 construct: extracellular domain; also called FcgRIIIa; 3a
Kind of test: SPR (Biacore), relative binding.

In test [2] the target is T2, FcγRIIIa. Kind of test: SPR; He/Con_3a divided by He/Con_2b (FcγRIIIa against FcγRIIb).

T2 sequence (P08637 17-208): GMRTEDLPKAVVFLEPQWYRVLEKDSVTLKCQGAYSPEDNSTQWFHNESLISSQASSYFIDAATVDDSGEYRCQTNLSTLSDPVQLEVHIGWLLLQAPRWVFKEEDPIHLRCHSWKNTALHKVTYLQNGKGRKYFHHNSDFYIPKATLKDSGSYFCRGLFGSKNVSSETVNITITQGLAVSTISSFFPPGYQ

B1: GpH7-A5/GpH7-B3 variant V266_11K/GpL16-k0 (antibody, human IgG1, kappa)
heavy 1: not shown
heavy 2: not shown
light: DIVMTQSPLSLPVTPGEPASISCQASESLVHSNRNTYLHWYLQKPGQSPQLLIYKVSNRFSGVPDRFSGSGSGTDFTLKISRVEAEDVGVYYCSQNTHVPPTFGQGTKVEIERTVAAPSVFIFPPSDEQLKSGTASVVCLLNNFYPREAKVQWKVDNALQSGNSQESVTEQDSKDSTYSLSSTLTLSKADYEKHKVYACEVTHQGLSSPVTKSFNRGEC
notes: mutation in the GpH7-B3 chain only; also called He Ab
B1: the He/Con_2b with FcγRIIb is 1 % of GpH7-A5/GpH7-B3/GpL16-k0. Besides, the He/Con_3a in the test with FcγRIIIa [1] is -0.7 % of GpH7-A5/GpH7-B3/GpL16-k0. Besides, in the test with FcγRIIIa [2], the “He_3a/2b (IIIa/IIb)” value was -0.7 ratio.

B2: GpH7-A5/GpH7-B3 variant V266_14T/GpL16-k0 (antibody, human IgG1, kappa)
heavy 1: not shown
heavy 2: not shown
light: DIVMTQSPLSLPVTPGEPASISCQASESLVHSNRNTYLHWYLQKPGQSPQLLIYKVSNRFSGVPDRFSGSGSGTDFTLKISRVEAEDVGVYYCSQNTHVPPTFGQGTKVEIERTVAAPSVFIFPPSDEQLKSGTASVVCLLNNFYPREAKVQWKVDNALQSGNSQESVTEQDSKDSTYSLSSTLTLSKADYEKHKVYACEVTHQGLSSPVTKSFNRGEC
notes: as for B1
For the molecule B2, in the test with FcγRIIb, the He/Con_2b was 82.3 % of GpH7-A5/GpH7-B3/GpL16-k0. Further, the He/Con_3a in the test with FcγRIIIa [1] was 39.4 % of GpH7-A5/GpH7-B3/GpL16-k0. Besides, the “He_3a/2b (IIIa/IIb)” value with FcγRIIIa [2] is 0.48 ratio.

B3: GpH7-A5/GpH7-B3 variant V266_19Q/GpL16-k0 (antibody, human IgG1, kappa)
heavy 1: not shown
heavy 2: not shown
light: DIVMTQSPLSLPVTPGEPASISCQASESLVHSNRNTYLHWYLQKPGQSPQLLIYKVSNRFSGVPDRFSGSGSGTDFTLKISRVEAEDVGVYYCSQNTHVPPTFGQGTKVEIERTVAAPSVFIFPPSDEQLKSGTASVVCLLNNFYPREAKVQWKVDNALQSGNSQESVTEQDSKDSTYSLSSTLTLSKADYEKHKVYACEVTHQGLSSPVTKSFNRGEC
notes: as for B1
As to B3, the He/Con_2b in the test with FcγRIIb is 89.2 % of GpH7-A5/GpH7-B3/GpL16-k0. The He/Con_3a with FcγRIIIa [1] is 34.7 % of GpH7-A5/GpH7-B3/GpL16-k0. For the same molecule, the “He_3a/2b (IIIa/IIb)” value with FcγRIIIa [2] stood at 0.39 ratio.

B4: GpH7-A5/GpH7-B3 variant V266_13S/GpL16-k0 (antibody, human IgG1, kappa)
heavy 1: not shown
heavy 2: not shown
light: DIVMTQSPLSLPVTPGEPASISCQASESLVHSNRNTYLHWYLQKPGQSPQLLIYKVSNRFSGVPDRFSGSGSGTDFTLKISRVEAEDVGVYYCSQNTHVPPTFGQGTKVEIERTVAAPSVFIFPPSDEQLKSGTASVVCLLNNFYPREAKVQWKVDNALQSGNSQESVTEQDSKDSTYSLSSTLTLSKADYEKHKVYACEVTHQGLSSPVTKSFNRGEC
notes: as for B1
B4: the He/Con_2b with FcγRIIb was 54.4 % of GpH7-A5/GpH7-B3/GpL16-k0. For the same molecule, the He/Con_3a with FcγRIIIa [1] is 28.1 % of GpH7-A5/GpH7-B3/GpL16-k0. Further, the “He_3a/2b (IIIa/IIb)” value in the test with FcγRIIIa [2] was determined as 0.52 ratio.

B5: GpH7-A5/GpH7-B3 variant V266_15Y/GpL16-k0 (antibody, human IgG1, kappa)
heavy 1: not shown
heavy 2: not shown
light: DIVMTQSPLSLPVTPGEPASISCQASESLVHSNRNTYLHWYLQKPGQSPQLLIYKVSNRFSGVPDRFSGSGSGTDFTLKISRVEAEDVGVYYCSQNTHVPPTFGQGTKVEIERTVAAPSVFIFPPSDEQLKSGTASVVCLLNNFYPREAKVQWKVDNALQSGNSQESVTEQDSKDSTYSLSSTLTLSKADYEKHKVYACEVTHQGLSSPVTKSFNRGEC
notes: as for B1
Turning to B5, in the test with FcγRIIb, the He/Con_2b is 49.4 % of GpH7-A5/GpH7-B3/GpL16-k0. In addition, the He/Con_3a with FcγRIIIa [1] is 14.5 % of GpH7-A5/GpH7-B3/GpL16-k0. The “He_3a/2b (IIIa/IIb)” value with FcγRIIIa [2] is 0.29 ratio.

B6: GpH7-A5/GpH7-B3 variant V266_18N/GpL16-k0 (antibody, human IgG1, kappa)
heavy 1: not shown
heavy 2: not shown
light: DIVMTQSPLSLPVTPGEPASISCQASESLVHSNRNTYLHWYLQKPGQSPQLLIYKVSNRFSGVPDRFSGSGSGTDFTLKISRVEAEDVGVYYCSQNTHVPPTFGQGTKVEIERTVAAPSVFIFPPSDEQLKSGTASVVCLLNNFYPREAKVQWKVDNALQSGNSQESVTEQDSKDSTYSLSSTLTLSKADYEKHKVYACEVTHQGLSSPVTKSFNRGEC
notes: as for B1
Turning to B6, the He/Con_2b in the test with FcγRIIb is 69.7 % of GpH7-A5/GpH7-B3/GpL16-k0. In addition, in the test with FcγRIIIa [1], the He/Con_3a is 30.4 % of GpH7-A5/GpH7-B3/GpL16-k0. In addition, the “He_3a/2b (IIIa/IIb)” value in the test with FcγRIIIa [2] is 0.44 ratio.

B7: GpH7-A5/GpH7-B3 variant V266_16H/GpL16-k0 (antibody, human IgG1, kappa)
heavy 1: not shown
heavy 2: not shown
light: DIVMTQSPLSLPVTPGEPASISCQASESLVHSNRNTYLHWYLQKPGQSPQLLIYKVSNRFSGVPDRFSGSGSGTDFTLKISRVEAEDVGVYYCSQNTHVPPTFGQGTKVEIERTVAAPSVFIFPPSDEQLKSGTASVVCLLNNFYPREAKVQWKVDNALQSGNSQESVTEQDSKDSTYSLSSTLTLSKADYEKHKVYACEVTHQGLSSPVTKSFNRGEC
notes: as for B1
As to B7, the He/Con_2b with FcγRIIb was 57.2 % of GpH7-A5/GpH7-B3/GpL16-k0. The He/Con_3a in the test with FcγRIIIa [1] was 21.3 % of GpH7-A5/GpH7-B3/GpL16-k0. Further, the “He_3a/2b (IIIa/IIb)” value in the test with FcγRIIIa [2] turned out to be 0.37 ratio.
